# From patent US20130202608A1
# Assays:
# Assay in all cases: cell-based or functional assay
# [1] = molecular target: hemagglutinin of A/chicken/Singapore/Sg02 H3N2 (influenza A virus A/chicken/Singapore/Sg02 (H3N2))
# [2] = molecular target: hemagglutinin of A/Indonesia/TLL013/2006 (H5N1, clade 2.1) (influenza A virus A/Indonesia/TLL013/2006 (H5N1))
# [3] = molecular target: hemagglutinin of A/Common iora/Indonesia/F89/H7N1 (influenza A virus A/Common iora/Indonesia/F89 (H7N1))
# [4] = molecular target: hemagglutinin of A/Indonesia/TLL014/2006 (H5N1, clade 2.1) (influenza A virus A/Indonesia/TLL014/2006 (H5N1))
# [5] = molecular target: hemagglutinin of A/Indonesia/CDC669/2006 (H5N1, clade 2.1) (influenza A virus A/Indonesia/CDC669/2006 (H5N1))
binder,measurement,setting,value
"murine monoclonal antibody 4C2 (antibody, V domains shown) VH: QESGAELVRPGASVKLSCKDSGYTFTTYWMNWVKQRPEQGLEWIGRIDPYDSETHYNQKFKDKAILTVDKSSNTAYMQLSSLTSEDSAVYYCVRGGSTVAYFGVWGQG VL: MTQSPSSMSVSLGDTVSITCHASQDISGHIGWLQQKPGKSFKGLIYHGTNLEDGVPSRFSGSGSGADFSLTISSLESEDFADYYCVQYVQFPWTFGGGTK",HI titer (titer (mAb at 1 mg/ml)),[1],< 4
same,Microneutralization titers against H5N1 strains,[1],< 10
same,HI titer (titer (mAb at 1 mg/ml)),[2],512
same,Microneutralization titers against H5N1 strains,[2],640
same,HI titer (titer (mAb at 1 mg/ml)),[3],< 4
same,Microneutralization titers against H5N1 strains,[3],< 10
same,HI titer (titer (mAb at 1 mg/ml)),[4],512
same,Microneutralization titers against H5N1 strains,[4],320
same,HI titer (titer (mAb at 1 mg/ml)),[5],512
same,Microneutralization titers against H5N1 strains,[5],320
